According to patent US20190002548A1 (Chugai, published 2019):
Residue numbers refer to the chain shown, from its start. Names may count otherwise.

T1: Human mature myostatin (myostatin mature form; recombinant mature myostatin) (human (mature form 100% identical in …, UniProt O08689 268-376 (mouse entry), biotinylated in the Biacore assay (immobilized on a streptavidin chip); not labelled in the HEK Blue Assay)
T1 construct: Disulfide-bonded homodimer of the C-terminal growth factor domain, purified from latent myostatin expressed in FreeStyle293-F cells; also called GDF-8 mature form; C-terminal growth factor domain of human myostatin
T1 sequence: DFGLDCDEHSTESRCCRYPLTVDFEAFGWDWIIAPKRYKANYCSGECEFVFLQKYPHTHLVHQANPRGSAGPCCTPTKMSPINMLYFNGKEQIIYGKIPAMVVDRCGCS

B1: MS_M22601H1020-SG1/M22608L0744-SK1 (antibody, human IgG1, kappa, V domains shown)
VH: EVQLVESGGGLVQPGGSLRLSCAVSGFTLSHYVKGWVRQAPGKGLEWIGIINISGSTYYASWAKGRFTISRDNSKNTVYLQMNSLRAEDTAVYFCARGHDNFGYSYHDFNLWGQGTLVTVSS
VL: AVVMTQSPATLSLSPGERVTLSCQASQSIHHELSWYQQKPGQPPKLLIYLASTLASGVPSRFKGSGSGTDFTLTISSLQPEDAATYYCQTYDGISHYGVAFGQGTKVEIKR
notes: pH-dependent variant of MSLO00-SG1; also called MSLO01-SG1; LO01-SG1
B2: MS_M22601H1080-SG1/M22608L0837-SK1 (antibody, human IgG1, kappa, V domains shown)
VH: B1 VH with S54E, K64E
VL: B1 VL with Q27E
notes: pH-dependent variant of MSLO00-SG1; also called MSLO02-SG1; LO02-SG1
B3: MS_M22601H1082-SG1/M22608L0837-SK1 (antibody, human IgG1, kappa, V domains shown)
VH: B1 VH with S54E, S56E
VL: B1 VL with Q27E
notes: pH-dependent variant of MSLO00-SG1; also called MSLO03-SG1; LO03-SG1
B4: MS_M22601H-SG1/M22608L-SK1 (antibody, human IgG1, kappa, V domains shown)
VH: B1 VH with H31N, K34M, H99G, H107I
VL: B1 VL with H30S, H31N, H96S
notes: Humanized form of MST0226-G1m; the non pH-dependent antibody; also called MSLO00-SG1; LO00-SG1
B5: MS_M22601H1080-SG1/M22608L0846-SK1 (antibody, human IgG1, kappa, V domains shown)
VH: B1 VH with S54E, K64E
VL: B1 VL with E32D
notes: pH-dependent variant of MSLO00-SG1; also called MSLO04-SG1; LO04-SG1
B6: MS_MST0095Hf-G1m/MST0095Lf-kOMTC (antibody, human IgG1, kappa, V domains shown)
VH: QSVEESGGRLVTPGTPLTLTCTASGFSLSSYYMSWVRQAPGKGLEWIGIISSRGSTYYASWAKGRFTISKTSTTVDLKITSPTTEDTATYFCARGVVLWGPGTLVTVSS
VL: ALVMTQTPASVSAAVGGTVTINCQASESIYSGLAWYQQKPGQPPKLLIYSASTLASGVPSRFRGSGSGTEYTLTINDLECADAATYYCQAYDSTNWTFGGGTEVVVKR
B7: MS_MST0226Hc-G1m/MST0226La-kOMTC (antibody, human IgG1, kappa, V domains shown)
VH: QSVEESGGRLVTPGGSLTLTCTVSGFSLSNYVMGWVRQAPGKGLEWIGIINISGSTYYASWAKGRFTISRTSTTVDLKMTSLTTEDTATYFCARGGDNFGYSYIDFNLWGPGTLVTVSS
VL: AVVMTQTPASVSEPVGGTVTIKCQASQSISNELSWYRQKPGQPPKLLIYLASTLASGVPSRFKGSGSGTDFTLTISDLECADAATYYCQTYDGISSYGVAFGGGTKVVVER

What follows are binders tested against T1, Human mature myostatin (myostatin …) (assay: SPR, Biacore T200, 37 degrees C; biotinylated mature myostatin on streptavidin chip, 100 nM antibody bound at pH 7.4; dissociation phase at pH 5.8).
Protocol: (§1) pH dependent binding of MST0226 variants to human mature myostatin were determined at 37 degrees C. using Biacore T200 instrument (GE Healthcare). Biotinylated mature myostatin was immobilized onto streptavidin sensor chip (GE Healthcare). In order to assess pH dependent binding of MST0226 variants to mature myostatin, 100 nM of antibodies were injected over mature myostatin sensor surface at pH 7.4 (20 mM ACES, 150 mM NaCl, 1.2 mM CaCl₂), 0.05% Tween 20, 0.005% NaN₃), followed by dissociation at pH 7.4 and an additional dissociation phase at pH5.8. This is to assess the pH-dependent dissociation of antibody/antigen complexes formed at pH 7.4. The dissociation rate (kd) at both pH 7.4 and pH 5.8 buffer was determined by processing and fitting data using Scrubber 2.0 (BioLogic Software) curve fitting software. The ratio of (kd at pH5.8)/(kd at pH 7.4) gives indication of pH dependent binding, e.g. ratio>1 indicates pH dependent binding. The sensor surface was regenerated each cycle with 10 mM Glycine-HCl, pH 1.7.
With B1 the koff was 0.00228 s⁻¹. With B2 the koff was 0.00254 s⁻¹. B3 was tested, and the koff was 0.00321 s⁻¹. For B4, the koff was 6.04e-05 s⁻¹. In the case of B5, the koff is reported as 0.00109 s⁻¹.

These binders were tested against T1, Human mature myostatin (myostatin …) (assay: cell-based or functional assay).
For B6, the “IC50 (read off the curve); HEK Blue Assay (SEAP reporter, OD620)” value (“IC50 (read off the curve)” for short) was ~4 ng/mL. For B7, the “IC50 (read off the curve)” value was ~7 ng/mL.

Each binder was assayed against T1, Human mature myostatin (myostatin …) (assay: SPR, Biacore T200, 37 degrees C; biotinylated mature myostatin on streptavidin chip, 100 nM antibody bound at pH 7.4; dissociation phase at pH 7.4).
Protocol: as §1
B1 showed a koff of 0.000131 s⁻¹. With B2 the koff was 9.7e-05 s⁻¹. For B3, the koff was 0.00012 s⁻¹. In the case of B4, the koff is reported as 7.82e-05 s⁻¹. B5 showed a koff of 4.19e-05 s⁻¹.

Biological target: T1, Human mature myostatin (myostatin …)
Experiment: cell-based or functional assay
Remark: another data set of the same source
For B5, the “IC50 (read off the curve)” value was ~6 ng/mL.

These binders were tested against T1, Human mature myostatin (myostatin …) (assay: SPR, Biacore T200, 37 degrees C; biotinylated mature myostatin on streptavidin chip; ratio of dissociation rates).
Protocol: as §1
With B1 the “Ratio of (kd pH 5.8)/(kd pH 7.4)” value was 17.4. With B2 the “Ratio of (kd pH 5.8)/(kd pH 7.4)” value was 26.2. B3 was tested, and the “Ratio of (kd pH 5.8)/(kd pH 7.4)” value was 26.8. With B4 the “Ratio of (kd pH 5.8)/(kd pH 7.4)” value was 0.8. For B5, the “Ratio of (kd pH 5.8)/(kd pH 7.4)” value was 25.9.

These binders were tested against T1, Human mature myostatin (myostatin …) (assay: SPR (Biacore T200, 37 degrees C), biotinylated mature myostatin on streptavidin chip, 100 nM antibody, dissociation at pH 7.4 then pH 5.8).
Protocol: as §1
For B1, the “ratio of (kd at pH5.8)/(kd at pH 7.4)” value was 17. In the case of B2, the “ratio of (kd at pH5.8)/(kd at pH 7.4)” value is reported as 17. B3 was tested, and the “ratio of (kd at pH5.8)/(kd at pH 7.4)” value was 17. With B5 the “ratio of (kd at pH5.8)/(kd at pH 7.4)” value was 17.
